Assay results: patent US9777041B2, “Protein nanofibers from self-assembling pentamers” (New York University, priority 2013, dated 2017)
Values joined by “and” are separate entries in the source; they are usually repeats but may differ in a detail not shown here. Identical values can stand only once.

Tests used:
[1] = Confocal microscopy of protein fibers in the presence of curcumin; format: physicochemical
Procedure: FIGS. 7a-7c show confocal microscopy of CC, Q54, and COMPcc^S wt, in the presence of curcumin. The mixture of protein to curcumin were all at a ratio of 1:5. […] All different proteins are in 50 mM phosphate buffer, pH 4. Protein and curcumin samples were combined and incubated for 12 hours prior to imaging. […] The width of COMPcc^S wt shown in FIG. 7c was determined to be 12.72 μm. […] Overall, Q54 fibers appeared to be more uniform in width, as well as more robust and consistent in fiber formation.
Confocal microscopy: Samples were imaged using a Leica TCS SP2 AOBS confocal microscope system equipped with argon ion and HeNe lasers. A 63×/1.4 NA oil-immersion objective was used for all of the images. Lab-Tek II chambered #1.5 German coverglass system was used as the imaging slide. Curcumin was excited using the 458 nm line of the argon laser, and images were taken with the detection window set between 465 and 560 nm. The pinhole aperture was set at an Airy value of 1.0, which was equivalent to sampling an ˜500 nm vertical z slice of the fiber, as estimated by the axial resolution, rz,confocal≈1.4λcm n/NA^2 (NA, numerical aperture; n, refractive index; λcm, emission wavelength (525 nm)). Interference contrast images were obtained using the Leica tube optics HC 1×/B apparatus with a focusing Bertrand lens. The 3D reconstructions were constructed using ImageJ 64 1.43 in concert with Amira 5.43, employing the Volren 3D rendering routine.

[2] = Circular dichroism thermal melts at 222 nm, van't Hoff analysis; format: physicochemical; details: for Tm: 10 μM protein; for ΔG° (free energy of folding): at 25° C.; for ΔS°: ΔS° = ΔH°/Tm
Procedure: (§1) Circular dichroism: Circular dichroism (CD) measurements were conducted on a Jasco J-815 CD spectrometer. Wavelength and temperature scans were conducted with 10 μM (6.3×10^−2 mg/mL) protein concentrations. The wavelength spectrum was measured over a range from 190 to 250 nm with a step size of 1 nm Mean residue ellipticity (MRE) was calculated from raw data according to the procedure described in Gunasekar et al. 2009. Secondary structure analysis of α-helical, β-sheet, and random coil content was calculated with the K2D method using DichroWeb software. Temperature scans of each protein were performed over a range of 20-85° C. with a temperature step of 1° C./min at 222 nm. Scans were also performed at of 2° C./min and 5° C./min to evaluate dependence of thermal melt signatures on scan speed. All measurements were made in duplicates of independently prepared proteins and data represents the average. Thermodynamic properties of wt and Q were determined through analysis of thermal melts. A two-state model was used, where assumptions included monophasic behavior and reversible melting behavior. These assumptions were confirmed experimentally by melting (from 20 to 85° C.) and cooling (from 85 to 20° C.) the proteins. Calculation of thermodynamic parameters including Tm, ΔG°, ΔH°, and ΔS° were performed according to the method described by Greenfield.
Thermodynamic properties were assessed via thermal melt of the proteins at 222 nm. Prior to calculating thermodynamic constants, assumptions of monophasic behavior and melt reversibility were confirmed experimentally for wt and Q at all pHs by melting and cooling proteins (FIGS. 18a-18d). The van't Hoff equation was applied to thermal melts of the proteins in the range of 20-85° C.

Zeta potential = format: physicochemical; details: 10 μM protein, pH 4
Procedure: Zeta potential: Zeta potential measurements were performed on a Zetasizer Nano Series model Nano Z590. 50 mM phosphate buffer at pH 4 was used to saturate the clear polycarbonate disposable zeta cell DTS1060C prior to injecting 750 μL protein samples at protein concentrations of 10 μM. The following settings were used for zeta potential measurements in the DTS (Nano) software: […] instrument settings, Smoluvchoski model, material protein, dispersant PBS, temperature of 25° C., viscosity 1.0200 cP, and dielectric constant of […]. Measurements were taken in triplicates, conducting 10 runs for each measurement, with a delay time of 2 seconds between each measurement.

[3] = Curcumin binding fluorescence; details: in the presence of Zn^2+
From the text: FIG. 40. Fluorescence of C and Q or with incorporated trifluoroleucine/TFL (C TFL and Q TFL) in the presence of no metal, Ni (II), or Zn (II) and curcumin. An increase in fluorescence indicates structural stability of the protein as it is able to bind with curcumin, the fluorescent probe in this case.

[4] = Circular dichroism wavelength scans (secondary structure); format: physicochemical; details: for −θ222 × 10^3 / −θmin × 10^3: 10 μM protein; for random coil / α helices / β sheet: CD, K2D method
Procedure: as §1
To assess the secondary structure of the proteins under acidic as well as neutral and basic conditions in solution, CD measurements were performed. […] The presence of residue P28 towards the center of Q may have influenced the secondary structure, showing decreased helical content when compared to wt at pH 4 and 10 (FIG. 16). The negative control, L, was completely unstructured, devoid of helical content at pH 4 (FIG. 11). […] As the pH increased, the helical content of soluble Q protein increased.
Mean residual ellipticities from circular dichroism measurements at pH 4, 8, and 10 for wt, L, and Q. The data presented in Table 5 represents the average and standard deviation of at least two replicates.

With “Q: Q54 protein, SEQ ID NO:2, variant of COMPcc; coiled-coil that self-assembles into homopentamers and nanofibers (MRGSHHHHHHGSIEGRVKEITFLKNTAPQMLRELQETNAALQDVRELLRQQSKL)” as the substance, how does the microfiber diameter ([1]; in the presence of curcumin (10 μM Q, 50 μM curcumin), pH 4) read?
The microfiber diameter was 16 μm and 16.0±5.6 μm.

What about the “average width of protein fibers” value ([1]; protein:curcumin 1:5, 20 mM protein, 100 mM curcumin, 50 mM phosphate buffer pH 4, 12 hours) of the same substance?
Its value is 16.87±9 μm.

And the “melting temperatures (Tm)” value ([2]; across all pH values (4, 8, 10))?
Its value is 46.4-63.5 °C.

And the “increase in Tm compared to the parent wt” value ([2]; pH 4)?
The value was 7.2 °C.

And the “ΔH° (van't Hoff enthalpy)” value ([2]; pH 4)?
Its value is -32.3 kcal/mol.

And the Tm ([2]; pH 4)?
The Tm was 55.3 °C.

What about the “ΔG° (free energy of folding)” value ([2]; pH 4) of the same substance?
The value was -3.3 kcal/mol.

What about the ΔS° ([2]; pH 4) of the same substance?
The ΔS° was -97.1 cal/(mol·K).

What about the “increase in Tm compared to the parent wt” value ([2]; pH 8) of the same substance?
The value was 14.7 °C.

What about the “ΔH° (van't Hoff enthalpy)” value ([2]; pH 8) of the same substance?
The value was -32.6 kcal/mol.

What about the Tm ([2]; pH 8) of the same substance?
The Tm was 63.5 °C.

What about the “ΔG° (free energy of folding)” value ([2]; pH 8) of the same substance?
The value was -3.8 kcal/mol.

And the ΔS° ([2]; pH 8)?
The ΔS° was -96.8 cal/(mol·K).

What about the “ΔH° (van't Hoff enthalpy)” value ([2]; pH 10) of the same substance?
Its value is -46.4 kcal/mol.

What about the Tm ([2]; pH 10) of the same substance?
The Tm was 46.4 °C.

And the “ΔG° (free energy of folding)” value ([2]; pH 10)?
The value was -3.1 kcal/mol.

And the ΔS° ([2]; pH 10)?
Its ΔS° is -145 cal/(mol·K).

And the zeta potential (Zeta potential; absence of curcumin)?
Its zeta potential is 19.1±2.5 mV.

And the “zeta potential, maximum value” (Zeta potential; curcumin concentration of 40 μM)?
The value was 25.2±0.8 mV.

What about the “binding to small molecule (curcumin fluorescence)” value [3] of the same substance?
The value was “substantially increase the binding to small molecule”.

And the “double minimum, ellipticity at 206 nm” value ([4]; 206 nm, pH 4 (Table 5))?
Its value is −6.54×10^3 deg cm^2 dmol^−1.

And the “double minimum, ellipticity at 222 nm” value ([4]; 222 nm, pH 4 (Table 5))?
The value was −3.71×10^3 deg cm^2 dmol^−1.

What about the “−θ222 × 10^3” value ([4]; pH 4) of the same substance?
Its value is 3.71 10^3 deg cm^2 dmol^-1.

And the “−θmin × 10^3” value ([4]; pH 4)?
Its value is 6.54 10^3 deg cm^2 dmol^-1.

What about the random coil ([4]; pH 4) of the same substance?
The random coil was 55%.

And the α helices ([4]; pH 4)?
Its α helices is 9%.

What about the β sheet ([4]; pH 4) of the same substance?
The β sheet was 36%.

What about the “−θ222 × 10^3” value ([4]; pH 8) of the same substance?
The value was 6.63 10^3 deg cm^2 dmol^-1.

What about the “−θmin × 10^3” value ([4]; pH 8) of the same substance?
The value was 7.79 10^3 deg cm^2 dmol^-1.

What about the random coil ([4]; pH 8) of the same substance?
Its random coil is 57%.

What about the α helices ([4]; pH 8) of the same substance?
Its α helices is 22%.

And the β sheet ([4]; pH 8)?
Its β sheet is 21%.

And the “−θ222 × 10^3” value ([4]; pH 10)?
The value was 6.76 10^3 deg cm^2 dmol^-1.

And the “−θmin × 10^3” value ([4]; pH 10)?
The value was 8.07 10^3 deg cm^2 dmol^-1.

And the random coil ([4]; pH 10)?
Its random coil is 57%.

What about the α helices ([4]; pH 10) of the same substance?
Its α helices is 25%.

What about the β sheet ([4]; pH 10) of the same substance?
Its β sheet is 18%.
